Earlier results as cited in PMC3197216.

Tests used:
[1] = target: GluA3 ATD (Rattus norvegicus) (UniProt P19492)
[2] = target: KA2 ATD (Rattus norvegicus) (UniProt Q63273)
[3] = target: NR2 ATD (Rattus norvegicus) (UniProt Q00960)
UniProt Q00960, sequence (Q00960 31-394): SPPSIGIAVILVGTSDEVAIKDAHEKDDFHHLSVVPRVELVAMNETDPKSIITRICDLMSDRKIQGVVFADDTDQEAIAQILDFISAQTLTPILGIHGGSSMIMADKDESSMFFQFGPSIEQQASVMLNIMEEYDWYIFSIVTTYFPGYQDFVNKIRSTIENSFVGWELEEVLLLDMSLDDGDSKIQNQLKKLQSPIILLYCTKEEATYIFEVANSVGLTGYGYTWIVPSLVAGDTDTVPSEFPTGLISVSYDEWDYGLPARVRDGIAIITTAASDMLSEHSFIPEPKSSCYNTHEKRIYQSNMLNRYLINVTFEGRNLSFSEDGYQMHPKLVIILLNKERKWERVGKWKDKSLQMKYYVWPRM

UniProt Q63273, sequence (Q63273 20-402): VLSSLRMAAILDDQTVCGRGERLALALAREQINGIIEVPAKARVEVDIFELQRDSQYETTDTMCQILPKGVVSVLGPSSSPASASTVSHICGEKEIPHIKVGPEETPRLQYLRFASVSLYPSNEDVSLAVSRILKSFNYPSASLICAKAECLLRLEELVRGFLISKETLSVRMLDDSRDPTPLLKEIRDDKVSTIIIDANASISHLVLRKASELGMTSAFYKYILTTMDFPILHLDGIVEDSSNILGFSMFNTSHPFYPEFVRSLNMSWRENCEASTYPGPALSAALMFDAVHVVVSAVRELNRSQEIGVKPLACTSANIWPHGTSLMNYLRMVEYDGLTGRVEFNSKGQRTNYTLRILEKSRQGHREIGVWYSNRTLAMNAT

## GluA3 ATD (from UniProt P19492)
[1]
  Kd: 1200 nM

## GluR6 ATD (from UniProt P42260)
[2]
  Kd: 11 nM

## NR1 ATD (from UniProt P35439)
[3]
  Kd: 700 nM
